In PMC12374970, “NSUN2 facilitates DICER cleavage of DNA damage-associated R-loops to promote repair” (Nature Communications, 2025):

Biological target: T1, 6xHis-DICER (recombinant wild-type DICER) (human, UniProt Q9UPY3 1-1922)
T1 construct: DICER (endoribonuclease Dicer), human; expressed from pFastBac1-hDICER; See Addgene 89144 and the plasmid list in Supplementary Data 1; also called hDICER; recombinant DICER; source: Sf9 (baculovirus, pFastBac1-hDICER), purified (Ni-NTA)
Test: SPR; Biacore S200; 6xHis-NSUN2 (0.2 μg/mL) immobilised on CM5 chip at pH 4.0 by amine coupling; 2-fold serial dilutions of 6xHis-DICER (0.00117–0.6 µM) in 50 mM TrisHCl (pH 8), 50 mM NaCl, 5 mM MgCl2, 2 mM TCEP, 0.05% Tween20; equilibrium (steady-state) fit
Settings: both partners purified

T1 sequence (Q9UPY3 whole entry): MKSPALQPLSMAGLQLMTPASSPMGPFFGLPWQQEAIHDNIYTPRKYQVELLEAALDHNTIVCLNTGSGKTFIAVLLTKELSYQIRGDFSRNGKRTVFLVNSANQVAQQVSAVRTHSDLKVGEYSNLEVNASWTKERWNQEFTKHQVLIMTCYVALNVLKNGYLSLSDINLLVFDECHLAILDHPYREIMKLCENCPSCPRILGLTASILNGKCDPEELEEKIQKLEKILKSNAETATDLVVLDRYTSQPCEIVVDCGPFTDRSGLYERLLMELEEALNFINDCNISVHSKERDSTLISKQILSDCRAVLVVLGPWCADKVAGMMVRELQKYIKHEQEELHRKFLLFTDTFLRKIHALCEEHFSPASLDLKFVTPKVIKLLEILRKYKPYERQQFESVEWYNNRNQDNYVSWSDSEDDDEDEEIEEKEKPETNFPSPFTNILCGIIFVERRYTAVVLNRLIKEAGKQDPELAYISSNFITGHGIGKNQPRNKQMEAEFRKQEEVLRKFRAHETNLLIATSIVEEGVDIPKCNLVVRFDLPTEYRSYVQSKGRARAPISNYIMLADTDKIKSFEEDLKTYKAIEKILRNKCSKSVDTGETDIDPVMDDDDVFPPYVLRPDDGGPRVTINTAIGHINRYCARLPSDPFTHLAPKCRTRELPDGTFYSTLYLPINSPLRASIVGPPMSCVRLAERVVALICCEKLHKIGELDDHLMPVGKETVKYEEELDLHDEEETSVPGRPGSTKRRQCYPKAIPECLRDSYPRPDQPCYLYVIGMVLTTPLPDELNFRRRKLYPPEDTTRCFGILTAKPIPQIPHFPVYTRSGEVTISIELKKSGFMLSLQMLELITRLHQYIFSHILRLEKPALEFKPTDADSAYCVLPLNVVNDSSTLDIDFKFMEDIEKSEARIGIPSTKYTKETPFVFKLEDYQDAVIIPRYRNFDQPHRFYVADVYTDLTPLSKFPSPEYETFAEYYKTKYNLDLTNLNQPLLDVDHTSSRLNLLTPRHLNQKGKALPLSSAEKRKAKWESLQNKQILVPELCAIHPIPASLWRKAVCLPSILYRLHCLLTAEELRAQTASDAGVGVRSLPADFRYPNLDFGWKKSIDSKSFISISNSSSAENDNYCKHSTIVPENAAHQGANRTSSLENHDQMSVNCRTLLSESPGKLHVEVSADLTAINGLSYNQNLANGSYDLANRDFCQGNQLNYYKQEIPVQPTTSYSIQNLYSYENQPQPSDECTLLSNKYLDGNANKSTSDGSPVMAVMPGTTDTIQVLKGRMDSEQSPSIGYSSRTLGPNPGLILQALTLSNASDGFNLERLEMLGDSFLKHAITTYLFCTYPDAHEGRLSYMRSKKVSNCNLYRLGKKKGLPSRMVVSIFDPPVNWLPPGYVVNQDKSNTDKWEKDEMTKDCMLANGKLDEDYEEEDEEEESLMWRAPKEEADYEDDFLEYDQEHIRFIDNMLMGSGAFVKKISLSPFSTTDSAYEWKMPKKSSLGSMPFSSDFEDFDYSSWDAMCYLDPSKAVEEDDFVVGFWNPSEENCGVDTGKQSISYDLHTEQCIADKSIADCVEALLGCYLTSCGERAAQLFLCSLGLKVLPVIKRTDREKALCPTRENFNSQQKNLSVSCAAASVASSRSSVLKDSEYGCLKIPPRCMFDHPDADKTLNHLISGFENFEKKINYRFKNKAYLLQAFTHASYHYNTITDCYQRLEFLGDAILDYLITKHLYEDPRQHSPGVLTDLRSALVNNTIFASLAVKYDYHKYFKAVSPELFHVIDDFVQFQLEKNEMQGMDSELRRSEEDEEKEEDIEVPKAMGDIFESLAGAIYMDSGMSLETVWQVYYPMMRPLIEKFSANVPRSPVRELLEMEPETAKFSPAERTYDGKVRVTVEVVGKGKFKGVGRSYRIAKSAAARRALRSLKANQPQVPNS

B1: 6xHis-NSUN2 (recombinant wild-type NSUN2) (enzyme, human, UniProt Q08J23 1-767, looked up)
chain: MGRRSRGRRLQQQQRPEDAEDGAEGGGKRGEAGWEGGYPEIVKENKLFEHYYQELKIVPEGEWGQFMDALREPLPATLRITGYKSHAKEILHCLKNKYFKELEDLEVDGQKVEVPQPLSWYPEELAWHTNLSRKILRKSPHLEKFHQFLVSETESGNISRQEAVSMIPPLLLNVRPHHKILDMCAAPGSKTTQLIEMLHADMNVPFPEGFVIANDVDNKRCYLLVHQAKRLSSPCIMVVNHDASSIPRLQIDVDGRKEILFYDRILCDVPCSGDGTMRKNIDVWKKWTTLNSLQLHGLQLRIATRGAEQLAEGGRMVYSTCSLNPIEDEAVIASLLEKSEGALELADVSNELPGLKWMPGITQWKVMTKDGQWFTDWDAVPHSRHTQIRPTMFPPKDPEKLQAMHLERCLRILPHHQNTGGFFVAVLVKKSSMPWNKRQPKLQGKSAETRESTQLSPADLTEGKPTDPSKLESPSFTGTGDTEIAHATEDLENNGSKKDGVCGPPPSKKMKLFGFKEDPFVFIPEDDPLFPPIEKFYALDPSFPRMNLLTRTTEGKKRQLYMVSKELRNVLLNNSEKMKVINTGIKVWCRNNSGEEFDCAFRLAQEGIYTLYPFINSRIITVSMEDVKILLTQENPFFRKLSSETYSQAKDLAKGSIVLKYEPDSANPDALQCPIVLCGWRGKASIRTFVPKNERLHYLRMMGLEVLGEKKKEGVILTNESAASTGQPDNDVTEGQRAGEPNSPDAEEANSPDVTAGCDPAGVHPPR
notes: RNA m5C-methyltransferase NSUN2, human; The plasmid list is in Supplementary Data 1; also called NSUN2 wt; recombinant NSUN2; source: Sf9 (baculovirus, pFastBac1-NSUN2), purified (Ni-NTA)
Kd: ~500 nM
